Results on one molecule are retold here after patent publication US20120058906A1 (published 2012).

Experiment [1] has as its target T1, Recombinant Human DLL4 (R&D Systems Cat#1506-D4/CF) (human, UniProt Q9NR61 27-524).
T1 construct: Bought protein; also called delta-like protein 4
Description: ECL (MSD multi-spot) titration, Fab at 1.19 uM; blank spot 24999.

The target in experiment [2] is T2, rHuman Erythropoietin R/Fc Chimera, CF (R&D Systems Cat#963-ER) (human, UniProt P19235 25-250).
T2 construct: Bought protein; also called EPO R/Fc; EPOR; not shown: Fc of the bought chimera
T2 sequence: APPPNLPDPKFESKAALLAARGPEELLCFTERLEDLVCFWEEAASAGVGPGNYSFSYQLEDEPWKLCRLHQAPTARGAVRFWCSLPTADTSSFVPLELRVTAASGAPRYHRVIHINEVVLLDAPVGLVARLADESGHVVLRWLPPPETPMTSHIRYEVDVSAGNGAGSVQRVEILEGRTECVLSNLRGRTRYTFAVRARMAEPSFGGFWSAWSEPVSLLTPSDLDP
Described as above.

Experiment [3] addresses T3, rHuman EGF R/Fc Chimera, CF (R&D Systems Cat#344-ER) (human, UniProt P00533 25-645).
T3 construct: Bought protein; also called epidermal growth factor receptor; not shown: Fc of the bought chimera
The experiment is described as above.

Experiment [4] has as its target T4, rHuman IGF-1 sR, CF (R&D Systems Cat#391-GR) (human, UniProt P08069 31-932).
T4 construct: Bought soluble receptor; also called insulin-like growth factor-1 soluble receptor; IGF-R1
The experiment is described as above.

Experiment [5] addresses T5, rHuman Notch-1/Fc Chimera, CF (R&D Systems Cat#3647-TK) (human, UniProt P46531 19-526).
T5 construct: Bought protein; not shown: Fc of the bought chimera
The experiment is described as above.

Experiment [6] deals with T6, rHuman P-Cadherin/Fc Chimera, CF (R&D Systems Cat#861-PC) (human, UniProt P22223 108-654).
T6 construct: Bought protein; not shown: Fc of the bought chimera
The experiment is described as above.

Experiment [7] addresses T1, Recombinant Human DLL4 (R&D Systems …). Description: ECL (MSD multi-spot) titration, Fab at 0.2975 uM; blank spot 5019.
The target of experiment [8] is T2, rHuman Erythropoietin R/Fc Chimera, CF …. Described as above.
The target of experiment [9] is T3, rHuman EGF R/Fc Chimera, CF (R&D …). The description is as above.
Experiment [10] deals with T4, rHuman IGF-1 sR, CF (R&D Systems …). The description is as above.
Experiment [11] addresses T5, rHuman Notch-1/Fc Chimera, CF (R&D …). Described as above.
For experiment [12], the target named is T6, rHuman P-Cadherin/Fc Chimera, CF (R&D …). The experiment is described as above.
Experiment [13] has as its target T1, Recombinant Human DLL4 (R&D Systems …). Description: ECL (MSD multi-spot) titration, Fab at 0.01859 uM; blank spot 1776.
Experiment [14] addresses T2, rHuman Erythropoietin R/Fc Chimera, CF …. The experiment is described as above.
For experiment [15], the target named is T3, rHuman EGF R/Fc Chimera, CF (R&D …). The experiment is described as above.
The target in experiment [16] is T4, rHuman IGF-1 sR, CF (R&D Systems …). Described as above.
For experiment [17], the target named is T5, rHuman Notch-1/Fc Chimera, CF (R&D …). Described as above.
In experiment [18] the target is T6, rHuman P-Cadherin/Fc Chimera, CF (R&D …). Described as above.
Experiment [19] addresses T1, Recombinant Human DLL4 (R&D Systems …). Description: ECL (MSD multi-spot) titration, Fab at 0.07438 uM; blank spot 2504.
Experiment [20] has as its target T2, rHuman Erythropoietin R/Fc Chimera, CF …. Described as above.
Experiment [21] deals with T3, rHuman EGF R/Fc Chimera, CF (R&D …). The description is as above.
Experiment [22] addresses T4, rHuman IGF-1 sR, CF (R&D Systems …). The description is as above.
Experiment [23] deals with T5, rHuman Notch-1/Fc Chimera, CF (R&D …). The description is as above.
Experiment [24] concerns the target T6, rHuman P-Cadherin/Fc Chimera, CF (R&D …). The experiment is described as above.
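Further: blank spot per well as comparator with Hit at signal to blank ratio of 4 or more.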

B1: Fab VH1-46_IGHD6-13*01_IGHJ4*01 & L2_IGKJ1*01 (Fab, V domains shown)
VH: QVQLVQSGAEVKKPGASVKVSCKASGYTFTSYYMHWVRQAPGQGLEWMGIINPSGGSTSYAQKFQGRVTMTRDTSTSTVYMELSSLRSEDTAVYYCAREGYSSSWYDYFDYWGQGTLVTVSS
VL: not shown
notes: also called Fab No. 7
Consider B1, for which the ECL signal in [1] was determined as 74900; in [2], 193000; in [3] it was 62500; in experiment [4] it was 35200; in experiment [5], 72000; in [6], 69700. In addition, the ECL signal in experiment [7] turned out to be 34700; in experiment [8], 167000; in experiment [9] it was 42200; in experiment [10], 17400; in experiment [11], 37500; in experiment [12] it was 26000. Also, the ECL signal in [13] stood at 18900; in experiment [14] it was 188000; in [15], 11800; in experiment [16] it was 3780; in experiment [17], 17600; in experiment [18] it was 11700. Further, the ECL signal in experiment [19] was 20700; in [20], 154000; in [21], 16600; in experiment [22], 5800; in [23] it was 22000; in experiment [24] it was 14800.
